± gives the standard deviation of the averaged measurements.
Legend:
[1] = melting temperature (DSF); higher = more thermostable
Outline: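 Enzymes made in E. coli C41(DE3) were nickel-bead purified and cut free with SUMO protease before testing. Differential scanning fluorimetry gave each melting temperature. For this, 5 μL 5X Sypro Orange was added to 45 μL enzyme (0 to 0.3 mg/mL) in sealed PCR plates, and a Bio-Rad CFX96 read fluorescence from 25 °C over 250 cycles of 0.3 °C each, ramping at 0.3 °C/s.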

[2] = purified protein yield per well (BCA); higher = higher soluble expression
Outline: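 The measured quantity is purified protein yield per well, determined with the Pierce Rapid Gold BCA kit. Anything below 25 ug (0.1 mg/mL) lies under the detection threshold. Enzymes were expressed in E. coli C41(DE3) in 2 mL autoinduction cultures with 100 µg/mL kanamycin at 37 °C for 2 h, then 18 °C for 40 h, and purified on an OT-2 robot using Ni-charged magnetic beads and SUMO protease release.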

[3] = PET hydrolysis, aromatic products released after 48 h (umol product/mg enzyme); higher = more PET depolymerization activity
Outline: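 Hydrolysis activity toward PET is reported as supernatant aromatic product per mg enzyme. To measure it, 5 μg (50 μL) of tagless enzyme was incubated with 3.5 mg amorphous PET film or crystalline PET powder in 450 μL buffer for 48 h at 40 or 60 °C in sealed, unshaken plates. The product was quantified by absorbance at 260 and 280 nm relative to buffer blanks.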

[4] = substrate: cryPow, 40 °C, pH 4.5
[5] = substrate: cryPow, 40 °C, pH 5.5
[6] = substrate: cryPow, 40 °C, pH 6.5
[7] = substrate: cryPow, 40 °C, pH 7.5
[8] = substrate: cryPow, 60 °C, pH 5.5
[9] = substrate: cryPow, 60 °C, pH 6.5
[10] = substrate: cryPow, 60 °C, pH 7.5
[11] = substrate: cryPow, 60 °C, pH 4.5

Q: Which melting temperature [1] does the source give for “QDNSQGRYRPEGRQIGVAAGREFGERIYEVRTYETNPGIAEFADVMVFYPLTLSFDRPNGAIAFSPGFRAAADNYEWWGPALASLGYNVFILNTNEPTDDLDARADALAALVDFIKAENANPDSPVANKIDEEKIALMGHSMGGGAALAAADRLGDAVGAVIPLALYCCNPGGSFEGDYGSLSAAALVIASAEDTVAPPEAHARLLYDSLGSENKIYMEFAAGDHMFPANGGPELATMGRFTLAFLKAYLDGVAGLEQHVTSPSDEYAERFSTYLAP [TEP035]” here?
A: Its melting temperature is 52.3 C.

Q: And the “purified protein yield per well” value [2]?
A: Its value is 51.6 µg.

Q: And the PET hydrolysis [3, 4]?
A: Its PET hydrolysis is less than 3.

Q: What about the PET hydrolysis [3, 5] of the same sequence?
A: The PET hydrolysis was less than 3.

Q: What about the PET hydrolysis [3, 6] of the same sequence?
A: Its PET hydrolysis is less than 3.

Q: And the PET hydrolysis [3, 7]?
A: The PET hydrolysis was less than 3.

Q: Which melting temperature [1] does the source give for “ANPYERGPAPTKASIEATTGYFATAKVTVAKSSVSGFGGGTIYYPTSTTSGTFGAIALVPGFTNVQSAVAWLGPRVASQGFVVFIIDTNSVYDSPDSRGTQLLAALDYLTNTSTVKSRVDATRLGVMGYSMGGGGALSATKTRTSIKASVPMAPYHSTKTWTTVKTPTLIVTGQSDTTAPPASHGLAFYNSLSTSIDKAYMELKGAGHSAPTSANTTIAKYSISWFKRFIDDDTRYDQFLCPNPTDTTISSYKSTCNYS [DP082]” here?
A: The melting temperature was 61.9 C.

Q: And the “purified protein yield per well” value [2]?
A: The value was 88 µg.

Q: What about the PET hydrolysis [3, 5] of the same sequence?
A: Its PET hydrolysis is 5.

Q: And the PET hydrolysis [3, 6]?
A: The PET hydrolysis was 76.

Q: What about the PET hydrolysis [3, 7] of the same sequence?
A: The PET hydrolysis was 100.

Q: And the PET hydrolysis ([3]; substrate: cryPow, 40 °C, pH 8.5)?
A: The PET hydrolysis was 93.

Q: And the PET hydrolysis [3, 8]?
A: The PET hydrolysis was less than 3.

Q: And the PET hydrolysis [3, 9]?
A: The PET hydrolysis was 13.

Q: And the PET hydrolysis [3, 10]?
A: The PET hydrolysis was 22.

Q: And the PET hydrolysis ([3]; substrate: cryPow, 60 °C, pH 8.5)?
A: The PET hydrolysis was 32.

Q: What does the source list for “DQIGQAPTASNITGNGSFATTSASISSTVSGFGGGRVYYPTAAGTYPVIAISPGFTATWSSLAWIGPRLSSWGFVVVGIETNSIYDQPASRGNQLLAALNWAVNSSPTAVRSHVDGSRRGVAGHSMGGGGTLEALAADTTGLVKAGVPLAPWNTDKTWNNVSEPVLIVGGQADTVAPVASHSIPFYNTLAGPKTYVELTGQSHFFPQTTNATASRALVAWFKRWVSQDSRFTPFTCGFSGVAVSDFRSNAC [ESM082]”?
A: melting temperature [1]: 67.6 C; purified protein yield per well [2]: 151 µg; PET hydrolysis [3, 4]: 9; PET hydrolysis [3, 5]: 22; PET hydrolysis [3, 6]: 29; PET hydrolysis [3, 7]: 36; PET hydrolysis [3, 11]: < 3; PET hydrolysis [3, 8]: 23; PET hydrolysis [3, 9]: 46; PET hydrolysis [3, 10]: 65

Q: Which melting temperature [1] does the source give for “MLTITVATGSASAADNPYQRGPDPTRTSVTAVNGPFANTSVSVPTGYGFNGGRIYYPTDTSQGTFGAIAISPGYTALFSAELAWMGPWLASHGFVVIGIETNSRNDFDTARGTQLLAALDYLTQQSPVRDRVDPNRLAVAGHSMGGGGALSAATRRSSLKAVVGIAPYSPSSNLANDRVPTMIFAGQADTVVTPSYATGLYNSLPTTTESAYLEVAGADHGFMVGRSNPVMVRTMLPFVKMFIDNDARYSQFLCPLLDSSGVVTYRSTCPLLPSTPPTSTPTPTDPPTPTPTPTVPPGSASEIVGTQSSRCIDVPNASRNNGTRVQLYDCNKQTNQA [ESM121]” here?
A: Its melting temperature is 58.9 C.

Q: What about the “purified protein yield per well” value [2] of the same sequence?
A: The value was 268 µg.

Q: And the PET hydrolysis ([3]; substrate: aFilm, 40 °C, pH 4.5)?
A: Its PET hydrolysis is less than 3.

Q: And the PET hydrolysis ([3]; substrate: aFilm, 40 °C, pH 5.5)?
A: The PET hydrolysis was less than 3.

Q: What about the PET hydrolysis ([3]; substrate: aFilm, 40 °C, pH 6.5) of the same sequence?
A: The PET hydrolysis was less than 3.

Q: And the PET hydrolysis ([3]; substrate: aFilm, 40 °C, pH 7.5)?
A: Its PET hydrolysis is less than 3.

Q: And the PET hydrolysis ([3]; substrate: aFilm, 60 °C, pH 4.5)?
A: Its PET hydrolysis is less than 3.

Q: And the PET hydrolysis ([3]; substrate: aFilm, 60 °C, pH 5.5)?
A: The PET hydrolysis was less than 3.

Q: What about the PET hydrolysis ([3]; substrate: aFilm, 60 °C, pH 6.5) of the same sequence?
A: The PET hydrolysis was less than 3.

Q: And the PET hydrolysis ([3]; substrate: aFilm, 60 °C, pH 7.5)?
A: The PET hydrolysis was less than 3.

Q: What about the PET hydrolysis [3, 4] of the same sequence?
A: The PET hydrolysis was 5.5 ± 0.71.

Q: What about the PET hydrolysis [3, 5] of the same sequence?
A: Its PET hydrolysis is 15 ± 1.4.

Q: And the PET hydrolysis [3, 6]?
A: The PET hydrolysis was 11.

Q: And the PET hydrolysis [3, 7]?
A: Its PET hydrolysis is 2.5 ± 3.5.

Q: What about the PET hydrolysis [3, 11] of the same sequence?
A: Its PET hydrolysis is less than 3.

Q: What about the PET hydrolysis [3, 8] of the same sequence?
A: The PET hydrolysis was less than 3.

Q: What about the PET hydrolysis [3, 9] of the same sequence?
A: The PET hydrolysis was less than 3.

Q: What about the PET hydrolysis [3, 10] of the same sequence?
A: Its PET hydrolysis is less than 3.

Q: Which melting temperature [1] does the source give for “VQIGPNPTKSSLEASRGPFSTSQFTVSRPSGYGAGTVYYPTNAGAKVGAIAIVPGFLSYQSSINWWGPRLASHGFVVITIDTYTTGDQPDSRSRQQLAALDQVIALGNTSSSPIYGKVDGSRTGVMGWSMGGGGSLISAKNRPSIKAAAPQAPWNTSTNFSSVTVPTLIFACQSDIVAPVISHAIPFYNSMTRNPKQYLEKTLGDHFCFNNANATVGLKGVAWMKRFVDGDTRYTSFACSNPNAFGFSDFRTARCS [ESM045]” here?
A: Its melting temperature is 63.4 C.

Q: And the “purified protein yield per well” value [2]?
A: The value was 30.4 µg.

Q: What about the PET hydrolysis [3, 4] of the same sequence?
A: The PET hydrolysis was 5.

Q: And the PET hydrolysis [3, 5]?
A: The PET hydrolysis was 12.

Q: And the PET hydrolysis [3, 6]?
A: The PET hydrolysis was 22.

Q: What about the PET hydrolysis [3, 7] of the same sequence?
A: Its PET hydrolysis is 35.

Q: Which results are given for “ASPYERGPDPTDSILEASRGPFATSQLSVSSLSVSGFGGGTVYYPTDTSQGTFGAIAISPGYTARWSSLAWLGPRIASHGFVVIGIETNTIYDQPASRGRQLLAALDYLTSSSPSTVRSRIDASRLAVAGHSMGGGGTLEAANDRPSLQAAVPLAPWNLTKIWSGVRVPTMIIGGEADTVAPVASHSEPFYQSIPSSVEKAYLELNNASHFFPQTTNTTMAKSMVAWLKRFVDDDTRYDQFLCPAPRGLAIQEYRDTCPIS [TEP144]”?
A: melting temperature [1]: 46.6 C; purified protein yield per well [2]: 32.6 µg; PET hydrolysis [3, 4]: < 3; PET hydrolysis [3, 5]: < 3; PET hydrolysis [3, 6]: < 3; PET hydrolysis [3, 7]: < 3

Q: With “AGNPYQRGPDPTLASVAASRGTFATAQVSVPPGNGFNGGTIYYPTDTTQGTWGAVAIVPGYTALFANEEAWMGPWLASFGFVVIGIETNSRNDFDTARGTQLLAALDYLTQKSPVRDRVDSARLGVIGHSMGGGGVVYATEHRPSLKAAVALAPFSPSQDMSTDHVPTMVMAGQNDTVVTPSYLDGLYATMPASAQSDFVQLAGADHVAYTHPNTTEMRLLIPWLKIFLDDDTRYTQFLCPLKDSTGVSMYRAKCPYVPPGGPTTSPTPTTTPTPPDGGACSATYRTVNSWSGGYQGEITVTAGGAAIDGWTVRWSLGGGQTVTQVWNGTLSTSGSTASVANASYNGSLQASASTTFGFLANGTPSTPALTCSSP [ESM084]” as the sequence, how does the melting temperature [1] read?
A: Its melting temperature is 43.9 C.

Q: And the “purified protein yield per well” value [2]?
A: The value was 119 µg.

Q: And the PET hydrolysis [3, 4]?
A: Its PET hydrolysis is less than 3.

Q: And the PET hydrolysis [3, 5]?
A: The PET hydrolysis was 5.

Q: What about the PET hydrolysis [3, 6] of the same sequence?
A: The PET hydrolysis was less than 3.

Q: What about the PET hydrolysis [3, 7] of the same sequence?
A: The PET hydrolysis was less than 3.

Q: And the PET hydrolysis [3, 11]?
A: Its PET hydrolysis is less than 3.

Q: What about the PET hydrolysis [3, 8] of the same sequence?
A: Its PET hydrolysis is less than 3.

Q: And the PET hydrolysis [3, 9]?
A: The PET hydrolysis was less than 3.

Q: And the PET hydrolysis [3, 10]?
A: Its PET hydrolysis is less than 3.
